Source: patent US20140294821A1

Experiments:
[1] = target: human von Willebrand factor, FVIII-free, plasma derived (human) (UniProt P04275); assay: SPR (BIAcore), binding to vWF
[2] = target: human von Willebrand factor, FVIII-free, plasma derived (human) (UniProt P04275); assay: SPR (BIAcore), hvWf as ligand, FVIII protein as analyte, N=5
[3] = target: human von Willebrand factor, FVIII-free, plasma derived (human) (UniProt P04275); assay: SPR (BIAcore), single-cycle kinetics 0.13-5.0 nM, plasma derived human vWF immobilized by amine coupling, 1:1 model, N=6

Row | Substance | fold difference in affinity (KD) against rBDD FVIII [1] [fold] | fold difference in on-rate against rBDD FVIII [1] [fold] | fold of KD against BDD FVIII alone [1] [fold] | Kd [2] [pM] | koff [2] [s⁻¹] | kon [2] [M⁻¹ s⁻¹] | Kd [3] [pM] | koff [3] [s⁻¹] | kon [3] [M⁻¹ s⁻¹]
1 | rFVIIIFc (recombinant B-domain deleted human FVIII-Fc monomer hybrid), drug substance (from UniProt P00451 20-1667; P0DOX5 223-449) (Fc fusion) | 2 | 2 | 2 | 1640 | 0.00125 | 792000 | 340 | 0.00089 | 2.6e+06
2 | rBDD FVIII (recombinant B-domain deleted FVIII lacking Fc moieties) (from UniProt P00451 20-1667; P00451 1668-2351) | – | – | – | 846 | 0.00114 | 1.37e+06 | – | – | –
